{"source": "patent US20170190782A1", "about": "(ABGENOMICS COOPERATIEF U A, published 2017)", "molecules": {"B1": {"name": "mouse 15A7 antibody (antibody, V domains shown)", "VL": "DILMTQTPLSLPVSLGDQASISCRSSQSIVHNDGNTYFEWYLQKPGQSPKLLIYKVSNRFSGVPDRFSGSGSGTHFTLNISRVEAEDLGIYYCFQGSYVPLTFGAGTKLELK", "VH": "DVQLVESGGGLVQPGGSRKLSCAASGFTFSSFGMHWVRQAPEKGLEWVAYINGGSSTIFYANAVKGRFTISRDNPKNTLFLQMTILRSEDTAIYYCGRYASYGGGAMDYWGQGTSVTVSS", "notes": "Mouse IgG1 from hybridoma m152-15A7; also called m15A7; m152-15A7"}, "B2": {"name": "chimeric 15A7 antibody (antibody, V domains shown)", "VH": "B1 VH", "VL": "B1 VL", "notes": "Mouse 15A7 VL on the human light chain constant region (pVk) and mouse 15A7 VH on the human IgG1, IgG2 or IgG4 heavy chain constant region (pVg1, pVg2, pVg4)"}, "B3": {"name": "humanized 15A7 antibody (antibody, V domains shown)", "VH": "EVQLVESGGGLVQPGGSLRLSCAASGFTFSSFGMHWVRQAPGKGLEWVAYINGGSSTIFYANAVKGRFTISRDNAKNTLYLQMNSLRAEDTAVYYCARYASYGGGAMDYWGQGTLVTVSS", "VL": "DIQMTQSPSSLSASVGDRVTITCRSSQSIVHNDGNTYFEWYQQKPGKAPKLLIYKVSNRFSGVPSRFSGSGSGTHFTLTISSLQPEDFATYYCFQGSYVPLTFGQGTKVEIK", "notes": "V regions were inserted into the pVk and pVg4 vectors (human kappa light chain constant region, human IgG4 heavy chain constant region); also called Hu15A7"}, "B4": {"name": "mouse 43B6 antibody (antibody, V domains shown)", "VL": "ENVLTQSPAIMSASPGEKVTMTCRASSTVNSTYLHWFQQKSGASPKLWIYGSSNLASGVPARFSGSGSGTSYSLTISSVEAEDAATYYCQQYSGYPLTFGAGTTLELK", "VH": "EVQLQQSGPDLVKPGALVKISCKASGYSFTAYYIHWVKQSHGKSLEWIGRVNPNTGGTSYNPKFKGKAILNVDKSSSTAYMELRSLTSEDSAVYYCARSGSPYYRYDDWGQGTTLTVSS", "notes": "Mouse IgG1 from hybridoma m166-43B6; also called m166-43B6; M166-43136"}, "B5": {"name": "mouse 9F9 antibody (antibody, V domains shown)", "VL": "DVLMTQTPLSLPVSLGDQASISCRSSQSIVNSNGNTYLEWYLQKPGQSPKLLIYKVSNRFSGVPDRFSGSGSGTDFTLKISRVEAEDLGVYYCFQGSHVPWTFGGGTKLEIK", "VH": "EVQLVETGGGLVQPKGSLKLSCAASGFTFNTNAMNWVRQAPGKGLEWVARIRSKSNNYATYYADSVKDRFTISRDDTQSMIYLQMNNLKTEDTGMYYCVRGGSYWYFDVWGAGTTVTVSS", "notes": "Mouse IgG1 from hybridoma m128-9F9; also called m128-9F9"}}, "key": {"[1]": {"target": "human P-Selectin Glycoprotein Ligand-1 (PSGL-1) (human) (UniProt Q14242)", "experiment": "FACS, inhibition of recombinant human P-selectin binding to activated T cells; competitor P-selectin"}, "[2]": {"target": "T1, E. coli expressed hCD162 fragment 42-119 fused to human immunoglobulin gamma 1 heavy chain constant region (human, UniProt Q14242 42-119)", "T1 construct": "range 42-119; Expressed in E. coli BL21(DE3) from pET-32a; NdeI/BglII cloning adds a start Met and junction residues that are not spelled out; also called fusion protein covering residues 42-119; not shown: human immunoglobulin gamma 1 heavy chain constant region", "T1 sequence (looked up)": "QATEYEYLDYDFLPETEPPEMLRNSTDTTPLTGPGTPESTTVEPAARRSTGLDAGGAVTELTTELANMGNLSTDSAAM", "experiment": "sandwich ELISA, fusion protein captured by goat anti-human IgG", "experimental": "(§1) A sandwich ELISA was conducted to study the interaction between the hCD162 fragments and each of 15A7, 9F9, and 43B6. 96-well microtiter plates were coated with goat anti-human IgG (Southern Biotechnology, Cat. No. 2040-01) antibody (2 μg/ml, 50 μl/well) overnight at 4° C. Plates were blocked by incubation with 0.25% of BSA in PBS (150 μl/well) for 1 hour at 37° C. The blocked plates were then incubated with fusion proteins containing various fragments of human CD162 (2 μg/ml) for 2 hours at room temperature. After washing 4 times with PBS containing 0.05% of Tween 20 (PBST), the plates were incubated with testing antibodies (2 μg/ml) for 1.5 hours at room temperature.\n(§2) After incubation, the plates were washed 4 times with PBST. 50 μl of 1 to 3000 diluted goat anti-mouse IgG conjugated with alkaline phosphatase (Southern Biotechnology, Cat. No. 1031-04) was then added to each well and the plates were incubated for 1 hour at 37° C. Enzyme reaction was carried out by adding 50 μl of an alkaline phosphatase substrate solution (1 alkaline phosphatase substrate tablet dissolved in 5 ml of substrate buffer containing 0.012 M of Na₂CO₃, 0.16 M of NaHCO₃ and 1 mM of MgCl₂ at pH 8.6), and absorbance at 405 nm was determined."}, "[3]": {"target": "T2, E. coli expressed hCD162 fragment 42-80 fused to human immunoglobulin gamma 1 heavy chain constant region (human, UniProt Q14242 42-80)", "T2 construct": "range 42-80; Expressed in E. coli from pET-32a; junction residues are not spelled out; not shown: human immunoglobulin gamma 1 heavy chain constant region", "T2 chain (looked up)": "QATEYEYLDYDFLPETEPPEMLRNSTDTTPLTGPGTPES", "experiment": "sandwich ELISA, fusion protein captured by goat anti-human IgG", "experimental": "as §1, §2"}, "[4]": {"target": "T3, human P-Selectin Glycoprotein Ligand-1 (PSGL-1) (human, UniProt Q14242 42-412)", "T3 sequence (looked up)": "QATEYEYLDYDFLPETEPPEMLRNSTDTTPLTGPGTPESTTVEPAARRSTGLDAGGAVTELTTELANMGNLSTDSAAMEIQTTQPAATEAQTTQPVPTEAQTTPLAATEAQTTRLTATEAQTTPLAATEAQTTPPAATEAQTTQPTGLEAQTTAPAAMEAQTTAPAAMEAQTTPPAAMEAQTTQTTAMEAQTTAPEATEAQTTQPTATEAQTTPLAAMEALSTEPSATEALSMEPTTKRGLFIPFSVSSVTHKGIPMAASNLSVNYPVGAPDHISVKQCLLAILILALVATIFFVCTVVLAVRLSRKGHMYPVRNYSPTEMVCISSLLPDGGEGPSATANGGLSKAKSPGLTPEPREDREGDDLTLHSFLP", "experiment": "cell-based or functional assay"}, "[5]": {"target": "T4, E. coli expressed hCD162 fragment 42-319 fused to human immunoglobulin gamma 1 heavy chain constant region (human, UniProt Q14242 42-319)", "T4 construct": "Expressed in E. coli from pET-32a; junction residues are not spelled out; not shown: human immunoglobulin gamma 1 heavy chain constant region", "T4 sequence (looked up)": "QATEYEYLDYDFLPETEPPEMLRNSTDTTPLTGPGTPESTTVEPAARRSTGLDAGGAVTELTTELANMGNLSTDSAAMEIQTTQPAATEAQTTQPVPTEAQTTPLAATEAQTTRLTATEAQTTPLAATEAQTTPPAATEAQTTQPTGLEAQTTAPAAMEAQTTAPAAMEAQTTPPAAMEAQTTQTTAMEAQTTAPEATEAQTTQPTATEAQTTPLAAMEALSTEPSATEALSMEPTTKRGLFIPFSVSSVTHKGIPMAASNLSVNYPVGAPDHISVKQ", "experiment": "sandwich ELISA, fusion protein captured by goat anti-human IgG, antibody at 2 µg/ml", "experimental": "as §1, §2"}, "[6]": {"target": "T3, human P-Selectin Glycoprotein Ligand-1 …", "experiment": "FACS, inhibition of recombinant human P-selectin binding to activated T cells; competitor P-selectin; the antibody binds PSGL-1 but does not block", "experimental": "(§3) Human PBMC were activated with 1% PHA for 2 days and maintained in IL-2-containing medium for 3 days. The cells were incubated with titrated 9F9, 15A7, 43B6, KPL-1 (an PSGL-1 antagonist), or a control antibody (9E10) for 30 minutes, followed by the addition of recombinant human P-selectin (1.25 μg/ml). Binding of P-selectin to activated T cells was measured by anti-P-selectin-FITC analyzed on FACS. Consistent with previous reports, KPL-1 almost completely abolished P-selectin's binding to activate T cells at a low concentration (0.31 μg/ml). 43B6 blocked binding of P-selectin to activated T cells as effectively as KPL-1 did, whereas a higher concentration of 9F9 was required to achieve the same effect. Indeed, 0.08 μg/ml KPL or 43B6 was needed to abolish 50% of the binding. In contrast, 5 μg/ml 9F9 was required."}, "[7]": {"target": "T3, human P-Selectin Glycoprotein Ligand-1 …", "experiment": "derived from FACS competition against Biotin-labeled mouse 15A7 on CD162-expressing Sp2/0 cells", "experimental": "(§4) Sp2/0 transfectants stably expressing human CD162 were used as source of human CD162 antigen. Biotin-labeled mouse 15A7 was used as tracer. Increasing amounts of competitor antibodies (mouse, chimeric, or humanized 15A7) were mixed with 35 ng of Biotin-labeled mouse 15A7 and incubated with 1×10⁵ CD162-expressing Sp2/0 cells for 1.5 hours at 4° C. with constant shaking. After washing, secondary antibody, Streptavidin-PE (Becton Dickinson Immunocytometry System Inc. Cat. No. 349023) was added to the mixture. After incubating for 45 minutes at 4° C., the cells were washed again, resuspended in 300 μl of PBS-1% of FBS, and subjected to FACS analysis."}, "[8]": {"target": "T3, human P-Selectin Glycoprotein Ligand-1 …", "experiment": "FACS competition against Biotin-labeled mouse 15A7 on CD162-expressing Sp2/0 cells", "experimental": "as §4"}, "[9]": {"target": "T1, E. coli expressed hCD162 fragment …", "experiment": "sandwich ELISA, fusion protein captured by goat anti-human IgG, antibody at 2 µg/ml", "experimental": "as §1, §2"}, "[10]": {"target": "T2, E. coli expressed hCD162 fragment 42-80 …", "experiment": "sandwich ELISA, fusion protein captured by goat anti-human IgG, antibody at 2 µg/ml", "experimental": "as §1, §2"}, "[11]": {"target": "T3, human P-Selectin Glycoprotein Ligand-1 …", "experiment": "FACS, inhibition of recombinant human P-selectin binding to activated T cells; competitor P-selectin", "experimental": "as §3"}}, "data": [{"molecule": "KPL-1 anti-hCD162 antibody (PharMingen)", "values": [{"measurement": "IC50", "setting": "[1]", "value": 0.08, "unit": "µg/mL"}, {"measurement": "concentration that almost completely abolished P-selectin's binding", "setting": "[1]", "value": 0.31, "unit": "µg/mL"}]}, {"molecule": "B1", "values": [{"measurement": "binding result", "setting": "[2]", "value": "no binding (tested: 2 µg/ml)"}, {"measurement": "binding result", "setting": "[3]", "value": "no binding (tested: 2 µg/ml)"}, {"measurement": "Percentage of apoptotic T cells (annexin V positive, CD3 gated), Day 0 non-activated human T cells", "setting": "[4]", "value": 5.23, "unit": "%"}, {"measurement": "Percentage of apoptotic T cells (annexin V positive, CD3 gated), Day 7 in vitro activated human T cells", "setting": "[4]", "value": 51.7, "unit": "%"}, {"measurement": "binding result", "setting": "[5]", "value": "binds"}, {"measurement": "IC50", "setting": "[6]", "value": "> 20", "unit": "µg/mL"}, {"measurement": "Ka", "setting": "[7]", "value": "4.03e+07", "unit": "M⁻¹"}, {"measurement": "IC50", "setting": "[8]", "value": 3.72, "unit": "µg/mL"}]}, {"molecule": "B2", "values": [{"measurement": "Ka", "setting": "[7]", "value": "2.62e+07", "unit": "M⁻¹"}, {"measurement": "IC50", "setting": "[8]", "value": "~5.71", "unit": "µg/mL"}]}, {"molecule": "B3", "values": [{"measurement": "Ka", "setting": "[7]", "value": "3.33e+07", "unit": "M⁻¹"}, {"measurement": "IC50", "setting": "[8]", "value": "~4.51", "unit": "µg/mL"}]}, {"molecule": "B4", "values": [{"measurement": "Percentage of apoptotic T cells (annexin V positive, CD3 gated), Day 0 non-activated human T cells", "setting": "[4]", "value": 6.57, "unit": "%"}, {"measurement": "Percentage of apoptotic T cells (annexin V positive, CD3 gated), Day 7 in vitro activated human T cells", "setting": "[4]", "value": 49.4, "unit": "%"}, {"measurement": "binding result", "setting": "[9]", "value": "binds"}, {"measurement": "binding result", "setting": "[10]", "value": "binds"}, {"measurement": "binding result", "setting": "[5]", "value": "binds"}, {"measurement": "IC50", "setting": "[11]", "value": 0.08, "unit": "µg/mL"}]}, {"molecule": "B5", "values": [{"measurement": "Percentage of apoptotic T cells (annexin V positive, CD3 gated), Day 0 non-activated human T cells", "setting": "[4]", "value": 5.82, "unit": "%"}, {"measurement": "Percentage of apoptotic T cells (annexin V positive, CD3 gated), Day 7 in vitro activated human T cells", "setting": "[4]", "value": 28.7, "unit": "%"}, {"measurement": "binding result", "setting": "[9]", "value": "binds"}, {"measurement": "binding result", "setting": "[10]", "value": "binds"}, {"measurement": "binding result", "setting": "[5]", "value": "binds"}, {"measurement": "IC50", "setting": "[11]", "value": 5, "unit": "µg/mL"}]}]}
